In the supplement of paper PMC10567573:

B1: PI4K2A (parent)
chain: FVKDPQGRIIAVFKPKNEEPYGHL

Variants of: B1
Experiment: protein stability index of a GFP-peptide fusion (GPS, HEK-293T) (PSI 1-6); higher = more stable
Settings: c terminus: a fixed tail appended
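Note: lentivirally expressed fusions sorted by FACS into six bins by GFP to DsRed ratio, PSI derived from sequencing read proportions per bin multiplied by bin number.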

Protein stability index, by site and new letter:
P5: C 1.66; H 2.51; G 1.5; T 1.67; L 1.39; R 2.16; M 1.3; W 2.7; E 2.04; N 2.29; Q 2.83; A 1.83; K 2.07; Y 2.28; D 2.03
E18: Q 1.8; Y 2.98; P 1.79; M 2.08; C 2.02; V 2.23; L 3.88; A 2.39; N 1.48; S 2.2; K 2.04; G 3.17; D 2.16; I 2.22; T 1.35; F 1.96; H 1.62; R 2.1
G7: V 1.73; H 2.79; R 2.08; W 3.45; N 2.23; Q 2.07; F 2.74; I 3; P 1.81; D 1.69; M 3.42; C 2.03; K 3.39; T 1.45; E 2.98; A 2.29
G22: E 2.02; K 2.44; A 1.66; C 1.93; H 1.88; P 2.63; F 1.81; D 1.74; L 2.03; Y 1.48; V 1.55; R 2.37; Q 2.09; T 1.41; M 2.1; N 1.73; I 1.74; S 2.65; W 1.72
F13: K 1.58; M 1.28; S 1.38; V 1.92; C 2.48; D 1.43; R 1.93; I 2.5; N 1.99; H 2.24; L 1.96; Q 2.13; E 2.05; P 2.3; Y 2.18; T 1.94; A 1.55; G 1.39; W 2.13
P20: I 1.76; E 1.75; M 2.65; T 2.01; D 2.05; V 1.16; L 1.55; F 1.94; Y 1.91; A 2.94; W 2.05; Q 1.7; S 2; G 2.05; R 1.7; H 1.74; N 1.94; C 1.78; K 1.2
V12: T 2.54; S 2.72; L 2.07; D 1.56; W 1.45; P 2.46; A 3.17; M 2; R 1.96; F 2.84; I 1.85; H 2.9; E 1.74; Q 2.5; G 2.44; Y 1.93; C 2.04; K 1.38
E19: V 1.73; L 2.34; N 1.91; M 1.81; G 1.67; R 1.34; F 1.52; W 2.91; T 2.09; A 1.58; D 2.16; S 1.71; K 2.58; C 2.52; I 2.62; Q 2.03; H 2.1; P 1.78; Y 1.73
R8: C 2.37; L 1.81; E 1.98; Q 1.92; A 2.51; H 1.93; I 2.72; G 2.47; T 3.95; M 2.87; V 1.72; K 1.61; W 1.14; S 3.87; N 1.31; Y 1.6; F 2.27
Q6: V 2.53; H 1.1; K 1.64; S 1.6; E 1.63; N 1.84; A 1.71; T 2.32; M 1.57; Y 1.6; P 2.21; D 2.4; L 2.22; F 1.62; W 1.7; I 1.45; C 1.54; G 1.92; R 1.49
P15: T 1.27; D 1.9; V 1.92; W 1.08; N 2.26; L 2.26; K 2.45; M 2.1; C 1.66; A 2.18; G 2.5; Q 2.07; H 1.58; E 2.37; F 1.77; R 2.84; Y 2.4; S 1.96; I 2.13
Y21: D 1.85; N 1.5; K 2.04; Q 2.53; F 2.21; M 1.54; I 2.91; P 2.17; H 2.59; S 1.72; T 1.74; A 1.57; V 1.65; R 2.11; W 2.26; L 2.85; G 1.65; E 1.44; C 2
D4: K 2.28; S 1.7; L 1.11; Y 2.06; P 1.31; Q 2.74; T 1.48
I9: K 2.63; V 2.56; N 4.29; F 2.01; W 2.5; Y 1.9; D 3.44; C 1.85; E 2.17; Q 1.67; L 2.06; S 2.61; R 1.59; T 2.34
I10: T 2.09; Q 1.74; F 2.79; H 2.33; C 2.23; A 2.15; P 2.56; R 2.85; N 2.35; M 2.51; D 1.97; S 1.97; W 2.88; Y 2.28; L 2.99; G 2.09; V 1.88
K14: A 2.09; C 2.56; V 1.47; L 2.08; F 2.67; T 2.17; R 1.18; P 2.07; M 3.22; D 2.49; E 2.09; Y 2.23; W 1.78; I 1.97; H 2.03; N 1.13; S 3.13; G 2.46; Q 2.2
K16: Y 2.44; G 1.46; N 1.68; V 2.79; P 1.7; E 2.3; C 1.63; M 1.98; I 2.31; W 2.23; Q 2.23; A 1.91; L 1.66; S 1.48; H 1.97; T 1.42; R 1.77; D 2.22; F 2.44
N17: L 2.35; F 1.57; S 1.64; G 1.48; V 1.66; Y 1.68; I 1.63; A 2.52; C 2.31; M 1.9; D 1.84; K 1.73; P 2; W 2.41; Q 1.97; T 1.92; H 2.38; R 1.3; E 2.33
A11: K 2.58; H 1.41; P 3.18; C 1.27; R 3.16; F 2.49; Q 3.56; D 2.94; G 2.72; M 2.01; L 1.61; E 2.07; Y 1.32; W 2.88; I 1.37; V 1.63
H23: E 1.62; G 2.6; A 1.65; C 1.94; D 2.39; F 1.27
